Measurements published in patent US10883980 (TRUSTEES OF PRINCETON UNIVERSITY, dated 2021).
Residue numbers refer to the chain shown, from its start.

Columns and labels:
[1] = biological target: the molecule itself; test: Western blot (anti-HA) of lysates from cells expressing ORF3-HA; self-association
[2] = biological target: the molecule itself; test: Western blot (anti-HA) of HepG2C3A lysates; self-association

B1: ORF3-HA (HA-tagged wild-type HEV ORF3 protein, Kernow C1/p6) (other)
chain: MGSPCALGLFCCCSSCFCLCCPRHRPASRLAVVVGGAAAVPAVVSGVTGLILSPSPSPIFIQPTPSPPISFHNPGLELALGSRPAPLAPLGVTSPSAPPLPPAVDLPQLGLRR
notes: Expressed by lentivirus in HepG2C3A cells and tested in cell lysate; also called HEV ORF3-HA; HA-tagged ORF3; not shown: HA tag; the name ORF3-HA puts it at the C-terminus
B1: binds [1].

B2: ORF3[IFI59-61AAA], HA-tagged (other)
chain: B1 chain with I59A, F60A, I61A
notes: Alanine triplet mutant of Kernow C1/p6 ORF3; also called ORF3[IF159-61AAA]; not shown: HA tag
B2: binds [2].
